Molecular target: T1, native KCC2 (neuron-specific K+-Cl- cotransporter) (mouse (endogenous in mouse brain)), Q91V14
T1 chain: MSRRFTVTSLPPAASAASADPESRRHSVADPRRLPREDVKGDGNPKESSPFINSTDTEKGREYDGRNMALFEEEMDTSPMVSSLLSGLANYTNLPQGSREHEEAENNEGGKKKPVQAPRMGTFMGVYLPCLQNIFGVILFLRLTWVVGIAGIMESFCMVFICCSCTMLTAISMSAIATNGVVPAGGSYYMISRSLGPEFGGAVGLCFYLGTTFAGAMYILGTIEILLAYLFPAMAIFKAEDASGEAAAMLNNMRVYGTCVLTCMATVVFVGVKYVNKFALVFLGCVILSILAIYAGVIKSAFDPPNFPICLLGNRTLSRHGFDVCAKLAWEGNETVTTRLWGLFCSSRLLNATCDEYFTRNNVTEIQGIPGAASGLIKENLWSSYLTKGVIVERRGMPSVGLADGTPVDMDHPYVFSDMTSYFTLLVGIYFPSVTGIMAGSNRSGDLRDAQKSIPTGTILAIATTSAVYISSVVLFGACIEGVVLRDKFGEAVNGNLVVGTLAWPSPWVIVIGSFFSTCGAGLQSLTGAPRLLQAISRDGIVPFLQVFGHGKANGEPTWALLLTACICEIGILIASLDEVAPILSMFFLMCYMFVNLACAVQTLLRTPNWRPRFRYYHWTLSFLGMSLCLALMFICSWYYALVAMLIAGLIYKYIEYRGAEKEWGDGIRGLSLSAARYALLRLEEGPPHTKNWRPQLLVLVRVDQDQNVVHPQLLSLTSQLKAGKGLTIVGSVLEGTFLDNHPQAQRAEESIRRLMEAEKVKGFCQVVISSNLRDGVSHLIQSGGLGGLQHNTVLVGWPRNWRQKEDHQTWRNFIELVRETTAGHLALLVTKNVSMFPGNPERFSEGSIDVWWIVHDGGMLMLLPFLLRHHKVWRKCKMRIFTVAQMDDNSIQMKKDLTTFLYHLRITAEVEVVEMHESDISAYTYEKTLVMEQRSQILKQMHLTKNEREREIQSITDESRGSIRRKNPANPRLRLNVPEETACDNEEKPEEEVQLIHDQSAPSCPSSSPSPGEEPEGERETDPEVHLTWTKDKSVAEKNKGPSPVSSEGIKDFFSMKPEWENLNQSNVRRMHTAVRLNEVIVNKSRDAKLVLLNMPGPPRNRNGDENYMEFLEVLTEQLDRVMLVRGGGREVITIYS
Assay: native gel or EMSA
Settings: remark: other sources report otherwise

B1: native KCC2 (neuron-specific K+-Cl- cotransporter), Q91V14 1-1138 (natural protein)
chain: MSRRFTVTSLPPAASAASADPESRRHSVADPRRLPREDVKGDGNPKESSPFINSTDTEKGREYDGRNMALFEEEMDTSPMVSSLLSGLANYTNLPQGSREHEEAENNEGGKKKPVQAPRMGTFMGVYLPCLQNIFGVILFLRLTWVVGIAGIMESFCMVFICCSCTMLTAISMSAIATNGVVPAGGSYYMISRSLGPEFGGAVGLCFYLGTTFAGAMYILGTIEILLAYLFPAMAIFKAEDASGEAAAMLNNMRVYGTCVLTCMATVVFVGVKYVNKFALVFLGCVILSILAIYAGVIKSAFDPPNFPICLLGNRTLSRHGFDVCAKLAWEGNETVTTRLWGLFCSSRLLNATCDEYFTRNNVTEIQGIPGAASGLIKENLWSSYLTKGVIVERRGMPSVGLADGTPVDMDHPYVFSDMTSYFTLLVGIYFPSVTGIMAGSNRSGDLRDAQKSIPTGTILAIATTSAVYISSVVLFGACIEGVVLRDKFGEAVNGNLVVGTLAWPSPWVIVIGSFFSTCGAGLQSLTGAPRLLQAISRDGIVPFLQVFGHGKANGEPTWALLLTACICEIGILIASLDEVAPILSMFFLMCYMFVNLACAVQTLLRTPNWRPRFRYYHWTLSFLGMSLCLALMFICSWYYALVAMLIAGLIYKYIEYRGAEKEWGDGIRGLSLSAARYALLRLEEGPPHTKNWRPQLLVLVRVDQDQNVVHPQLLSLTSQLKAGKGLTIVGSVLEGTFLDNHPQAQRAEESIRRLMEAEKVKGFCQVVISSNLRDGVSHLIQSGGLGGLQHNTVLVGWPRNWRQKEDHQTWRNFIELVRETTAGHLALLVTKNVSMFPGNPERFSEGSIDVWWIVHDGGMLMLLPFLLRHHKVWRKCKMRIFTVAQMDDNSIQMKKDLTTFLYHLRITAEVEVVEMHESDISAYTYEKTLVMEQRSQILKQMHLTKNEREREIQSITDESRGSIRRKNPANPRLRLNVPEETACDNEEKPEEEVQLIHDQSAPSCPSSSPSPGEEPEGERETDPEVHLTWTKDKSVAEKNKGPSPVSSEGIKDFFSMKPEWENLNQSNVRRMHTAVRLNEVIVNKSRDAKLVLLNMPGPPRNRNGDENYMEFLEVLTEQLDRVMLVRGGGREVITIYS
stoichiometry N: 4

Reference: PMC6340141
